{"source": "patent US12679878B2", "about": "“CRF2 receptor agonists and their use in therapy” (SANOFI, priority 2020, dated 2026)", "key": {"rat CRF2R α receptor": {"target": "rat CRF2R α receptor (rat, UniProt P47866 20-411)", "sequence (P47866 20-411)": "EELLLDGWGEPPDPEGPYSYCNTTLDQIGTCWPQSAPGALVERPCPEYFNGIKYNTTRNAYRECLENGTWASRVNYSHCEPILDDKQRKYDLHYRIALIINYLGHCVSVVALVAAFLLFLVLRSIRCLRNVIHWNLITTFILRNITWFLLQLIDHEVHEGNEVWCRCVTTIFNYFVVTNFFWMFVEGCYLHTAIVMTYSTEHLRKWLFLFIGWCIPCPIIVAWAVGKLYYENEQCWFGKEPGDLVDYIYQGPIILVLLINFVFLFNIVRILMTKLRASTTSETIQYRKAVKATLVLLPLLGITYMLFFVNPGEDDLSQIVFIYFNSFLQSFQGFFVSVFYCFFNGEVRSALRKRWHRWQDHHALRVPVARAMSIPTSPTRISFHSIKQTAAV", "assay": "cell-based or functional assay"}, "[1]": {"target": "T1, anti-target CRF1R receptor (UniProt P34998 24-415, limits assumed)", "T1 sequence (looked up)": "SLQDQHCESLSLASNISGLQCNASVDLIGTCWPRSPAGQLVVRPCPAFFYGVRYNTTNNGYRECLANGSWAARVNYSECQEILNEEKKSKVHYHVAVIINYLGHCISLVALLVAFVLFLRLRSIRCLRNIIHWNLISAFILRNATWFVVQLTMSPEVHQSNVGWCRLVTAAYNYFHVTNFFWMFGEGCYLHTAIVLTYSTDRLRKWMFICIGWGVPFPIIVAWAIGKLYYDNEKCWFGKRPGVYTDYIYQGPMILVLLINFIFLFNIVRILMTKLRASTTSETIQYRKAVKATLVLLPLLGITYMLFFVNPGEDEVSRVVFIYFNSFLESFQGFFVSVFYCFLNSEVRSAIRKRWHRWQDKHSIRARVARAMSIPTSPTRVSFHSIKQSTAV", "assay": "cell-based or functional assay"}}, "note": "Starred links: 1 amine or outer side, 2 acyl side, 3 side chain; linkers in the order of their positions; H or OH if unused. Non-standard residues stand in square brackets, D forms with d. Groups on a side chain read outwards from the residue. No end group written: not given here. *: point of attachment. C18 diacid = O=C(O)CCCCCCCCCCCCCCCCC(=O)*; γGlu = O=C(O)[C@H](CCC(=O)[*:2])N[*:1]; AEEA = NCCOCCOCC(=O)O; Aib = CC(C)(N)C(=O)O"}
{"binder": "IVLSLDVPIKLK([AEEA-AEEA-γGlu-C18 diacid])QILLKQERQKKQRQKAETNKQILAQV-NH2 (N-terminus assumed; SMILES CC[C@H](C)[C@H](N)C(=O)N[C@H](C(=O)N[C@@H](CC(C)C)C(=O)N[C@@H](CO)C(=O)N[C@@H](CC(C)C)C(=O)N[C@@H](CC(=O)O)C(=O)N[C@H](C(=O)N1CCC[C@H]1C(=O)N[C@H](C(=O)N[C@@H](CCCCN)C(=O)N[C@@H](CC(C)C)C(=O)N[C@@H](CCCCNC(=O)COCCOCCNC(=O)COCCOCCNC(=O)CC[C@H](NC(=O)CCCCCCCCCCCCCCCCC(=O)O)C(=O)O)C(=O)N[C@@H](CCC(N)=O)C(=O)N[C@H](C(=O)N[C@@H](CC(C)C)C(=O)N[C@@H](CC(C)C)C(=O)N[C@@H](CCCCN)C(=O)N[C@@H](CCC(N)=O)C(=O)N[C@@H](CCC(=O)O)C(=O)N[C@@H](CCCNC(=N)N)C(=O)N[C@@H](CCC(N)=O)C(=O)N[C@@H](CCCCN)C(=O)N[C@@H](CCCCN)C(=O)N[C@@H](CCC(N)=O)C(=O)N[C@@H](CCCNC(=N)N)C(=O)N[C@@H](CCC(N)=O)C(=O)N[C@@H](CCCCN)C(=O)N[C@@H](C)C(=O)N[C@@H](CCC(=O)O)C(=O)N[C@H](C(=O)N[C@@H](CC(N)=O)C(=O)N[C@@H](CCCCN)C(=O)N[C@@H](CCC(N)=O)C(=O)N[C@H](C(=O)N[C@@H](CC(C)C)C(=O)N[C@@H](C)C(=O)N[C@@H](CCC(N)=O)C(=O)N[C@H](C(N)=O)C(C)C)[C@@H](C)CC)[C@@H](C)O)[C@@H](C)CC)[C@@H](C)CC)C(C)C)C(C)C)", "note": "[peptide of SEQ ID NO: 77]", "values": [{"measurement": "EC50 [nM], 0% HSA (cAMP, A7R5 cells)", "setting": "rat CRF2R α receptor", "result": 3.26, "unit": "nM"}, {"measurement": "EC50[nM] 0% HSA (cAMP, CRF1R-overexpression CHO cells)", "setting": "[1]", "result": "> 1000", "unit": "nM"}, {"measurement": "Emax (%) (cAMP, CRF1R-overexpression CHO cells)", "setting": "[1]", "result": 1.56, "unit": "%"}]}
{"binder": "IVLSLDVPIKLK([AEEA-AEEA-γGlu-C18 diacid])K[Aib]LLEQERQKKQREQAETNKQILAQV-NH2 (N-terminus assumed; SMILES CC[C@H](C)[C@H](N)C(=O)N[C@H](C(=O)N[C@@H](CC(C)C)C(=O)N[C@@H](CO)C(=O)N[C@@H](CC(C)C)C(=O)N[C@@H](CC(=O)O)C(=O)N[C@H](C(=O)N1CCC[C@H]1C(=O)N[C@H](C(=O)N[C@@H](CCCCN)C(=O)N[C@@H](CC(C)C)C(=O)N[C@@H](CCCCNC(=O)COCCOCCNC(=O)COCCOCCNC(=O)CC[C@H](NC(=O)CCCCCCCCCCCCCCCCC(=O)O)C(=O)O)C(=O)N[C@@H](CCCCN)C(=O)NC(C)(C)C(=O)N[C@@H](CC(C)C)C(=O)N[C@@H](CC(C)C)C(=O)N[C@@H](CCC(=O)O)C(=O)N[C@@H](CCC(N)=O)C(=O)N[C@@H](CCC(=O)O)C(=O)N[C@@H](CCCNC(=N)N)C(=O)N[C@@H](CCC(N)=O)C(=O)N[C@@H](CCCCN)C(=O)N[C@@H](CCCCN)C(=O)N[C@@H](CCC(N)=O)C(=O)N[C@@H](CCCNC(=N)N)C(=O)N[C@@H](CCC(=O)O)C(=O)N[C@@H](CCC(N)=O)C(=O)N[C@@H](C)C(=O)N[C@@H](CCC(=O)O)C(=O)N[C@H](C(=O)N[C@@H](CC(N)=O)C(=O)N[C@@H](CCCCN)C(=O)N[C@@H](CCC(N)=O)C(=O)N[C@H](C(=O)N[C@@H](CC(C)C)C(=O)N[C@@H](C)C(=O)N[C@@H](CCC(N)=O)C(=O)N[C@H](C(N)=O)C(C)C)[C@@H](C)CC)[C@@H](C)O)[C@@H](C)CC)C(C)C)C(C)C)", "note": "[peptide of SEQ ID NO: 69]", "values": [{"measurement": "EC50 [nM], 0% HSA (cAMP, A7R5 cells)", "setting": "rat CRF2R α receptor", "result": 7.33, "unit": "nM"}, {"measurement": "EC50[nM] 0% HSA (cAMP, CRF1R-overexpression CHO cells)", "setting": "[1]", "result": "> 1000", "unit": "nM"}, {"measurement": "Emax (%) (cAMP, CRF1R-overexpression CHO cells)", "setting": "[1]", "result": 0.02, "unit": "%"}]}
{"binder": "IVLSLDVPIKLK([AEEA-AEEA-γGlu-C18 diacid])QILLKQERQKKQRQQAETN[Aib]QILAQV-NH2 (N-terminus assumed; SMILES CC[C@H](C)[C@H](N)C(=O)N[C@H](C(=O)N[C@@H](CC(C)C)C(=O)N[C@@H](CO)C(=O)N[C@@H](CC(C)C)C(=O)N[C@@H](CC(=O)O)C(=O)N[C@H](C(=O)N1CCC[C@H]1C(=O)N[C@H](C(=O)N[C@@H](CCCCN)C(=O)N[C@@H](CC(C)C)C(=O)N[C@@H](CCCCNC(=O)COCCOCCNC(=O)COCCOCCNC(=O)CC[C@H](NC(=O)CCCCCCCCCCCCCCCCC(=O)O)C(=O)O)C(=O)N[C@@H](CCC(N)=O)C(=O)N[C@H](C(=O)N[C@@H](CC(C)C)C(=O)N[C@@H](CC(C)C)C(=O)N[C@@H](CCCCN)C(=O)N[C@@H](CCC(N)=O)C(=O)N[C@@H](CCC(=O)O)C(=O)N[C@@H](CCCNC(=N)N)C(=O)N[C@@H](CCC(N)=O)C(=O)N[C@@H](CCCCN)C(=O)N[C@@H](CCCCN)C(=O)N[C@@H](CCC(N)=O)C(=O)N[C@@H](CCCNC(=N)N)C(=O)N[C@@H](CCC(N)=O)C(=O)N[C@@H](CCC(N)=O)C(=O)N[C@@H](C)C(=O)N[C@@H](CCC(=O)O)C(=O)N[C@H](C(=O)N[C@@H](CC(N)=O)C(=O)NC(C)(C)C(=O)N[C@@H](CCC(N)=O)C(=O)N[C@H](C(=O)N[C@@H](CC(C)C)C(=O)N[C@@H](C)C(=O)N[C@@H](CCC(N)=O)C(=O)N[C@H](C(N)=O)C(C)C)[C@@H](C)CC)[C@@H](C)O)[C@@H](C)CC)[C@@H](C)CC)C(C)C)C(C)C)", "note": "[peptide of SEQ ID NO: 75]", "values": [{"measurement": "EC50 [nM], 0% HSA (cAMP, A7R5 cells)", "setting": "rat CRF2R α receptor", "result": 1.71, "unit": "nM"}, {"measurement": "EC50[nM] 0% HSA (cAMP, CRF1R-overexpression CHO cells)", "setting": "[1]", "result": "> 1000", "unit": "nM"}, {"measurement": "Emax (%) (cAMP, CRF1R-overexpression CHO cells)", "setting": "[1]", "result": 2.7, "unit": "%"}]}
{"binder": "IVLSLDVPIKLK([AEEA-AEEA-γGlu-C18 diacid])QILLEQERQKKQRQQAETN[Aib]QILAQV-NH2 (N-terminus assumed; SMILES CC[C@H](C)[C@H](N)C(=O)N[C@H](C(=O)N[C@@H](CC(C)C)C(=O)N[C@@H](CO)C(=O)N[C@@H](CC(C)C)C(=O)N[C@@H](CC(=O)O)C(=O)N[C@H](C(=O)N1CCC[C@H]1C(=O)N[C@H](C(=O)N[C@@H](CCCCN)C(=O)N[C@@H](CC(C)C)C(=O)N[C@@H](CCCCNC(=O)COCCOCCNC(=O)COCCOCCNC(=O)CC[C@H](NC(=O)CCCCCCCCCCCCCCCCC(=O)O)C(=O)O)C(=O)N[C@@H](CCC(N)=O)C(=O)N[C@H](C(=O)N[C@@H](CC(C)C)C(=O)N[C@@H](CC(C)C)C(=O)N[C@@H](CCC(=O)O)C(=O)N[C@@H](CCC(N)=O)C(=O)N[C@@H](CCC(=O)O)C(=O)N[C@@H](CCCNC(=N)N)C(=O)N[C@@H](CCC(N)=O)C(=O)N[C@@H](CCCCN)C(=O)N[C@@H](CCCCN)C(=O)N[C@@H](CCC(N)=O)C(=O)N[C@@H](CCCNC(=N)N)C(=O)N[C@@H](CCC(N)=O)C(=O)N[C@@H](CCC(N)=O)C(=O)N[C@@H](C)C(=O)N[C@@H](CCC(=O)O)C(=O)N[C@H](C(=O)N[C@@H](CC(N)=O)C(=O)NC(C)(C)C(=O)N[C@@H](CCC(N)=O)C(=O)N[C@H](C(=O)N[C@@H](CC(C)C)C(=O)N[C@@H](C)C(=O)N[C@@H](CCC(N)=O)C(=O)N[C@H](C(N)=O)C(C)C)[C@@H](C)CC)[C@@H](C)O)[C@@H](C)CC)[C@@H](C)CC)C(C)C)C(C)C)", "note": "[peptide of SEQ ID NO: 72]", "values": [{"measurement": "EC50 [nM], 0% HSA (cAMP, A7R5 cells)", "setting": "rat CRF2R α receptor", "result": 4.31, "unit": "nM"}, {"measurement": "EC50[nM] 0% HSA (cAMP, CRF1R-overexpression CHO cells)", "setting": "[1]", "result": "> 1000", "unit": "nM"}, {"measurement": "Emax (%) (cAMP, CRF1R-overexpression CHO cells)", "setting": "[1]", "result": 2.58, "unit": "%"}]}
{"binder": "IVLSLDVPIKLK([AEEA-AEEA-γGlu-C18 diacid])QILLEQERQKKQREQAETN[Aib]QILAQV-NH2 (N-terminus assumed; SMILES CC[C@H](C)[C@H](N)C(=O)N[C@H](C(=O)N[C@@H](CC(C)C)C(=O)N[C@@H](CO)C(=O)N[C@@H](CC(C)C)C(=O)N[C@@H](CC(=O)O)C(=O)N[C@H](C(=O)N1CCC[C@H]1C(=O)N[C@H](C(=O)N[C@@H](CCCCN)C(=O)N[C@@H](CC(C)C)C(=O)N[C@@H](CCCCNC(=O)COCCOCCNC(=O)COCCOCCNC(=O)CC[C@H](NC(=O)CCCCCCCCCCCCCCCCC(=O)O)C(=O)O)C(=O)N[C@@H](CCC(N)=O)C(=O)N[C@H](C(=O)N[C@@H](CC(C)C)C(=O)N[C@@H](CC(C)C)C(=O)N[C@@H](CCC(=O)O)C(=O)N[C@@H](CCC(N)=O)C(=O)N[C@@H](CCC(=O)O)C(=O)N[C@@H](CCCNC(=N)N)C(=O)N[C@@H](CCC(N)=O)C(=O)N[C@@H](CCCCN)C(=O)N[C@@H](CCCCN)C(=O)N[C@@H](CCC(N)=O)C(=O)N[C@@H](CCCNC(=N)N)C(=O)N[C@@H](CCC(=O)O)C(=O)N[C@@H](CCC(N)=O)C(=O)N[C@@H](C)C(=O)N[C@@H](CCC(=O)O)C(=O)N[C@H](C(=O)N[C@@H](CC(N)=O)C(=O)NC(C)(C)C(=O)N[C@@H](CCC(N)=O)C(=O)N[C@H](C(=O)N[C@@H](CC(C)C)C(=O)N[C@@H](C)C(=O)N[C@@H](CCC(N)=O)C(=O)N[C@H](C(N)=O)C(C)C)[C@@H](C)CC)[C@@H](C)O)[C@@H](C)CC)[C@@H](C)CC)C(C)C)C(C)C)", "note": "[peptide of SEQ ID NO: 70]", "values": [{"measurement": "EC50 [nM], 0% HSA (cAMP, A7R5 cells)", "setting": "rat CRF2R α receptor", "result": 8.72, "unit": "nM"}, {"measurement": "EC50[nM] 0% HSA (cAMP, CRF1R-overexpression CHO cells)", "setting": "[1]", "result": "> 1000", "unit": "nM"}, {"measurement": "Emax (%) (cAMP, CRF1R-overexpression CHO cells)", "setting": "[1]", "result": 3.03, "unit": "%"}]}
